To fix the notation:
B1: BCMA-M2-WT (bispecific antibody, human IgG1, kappa)
chain: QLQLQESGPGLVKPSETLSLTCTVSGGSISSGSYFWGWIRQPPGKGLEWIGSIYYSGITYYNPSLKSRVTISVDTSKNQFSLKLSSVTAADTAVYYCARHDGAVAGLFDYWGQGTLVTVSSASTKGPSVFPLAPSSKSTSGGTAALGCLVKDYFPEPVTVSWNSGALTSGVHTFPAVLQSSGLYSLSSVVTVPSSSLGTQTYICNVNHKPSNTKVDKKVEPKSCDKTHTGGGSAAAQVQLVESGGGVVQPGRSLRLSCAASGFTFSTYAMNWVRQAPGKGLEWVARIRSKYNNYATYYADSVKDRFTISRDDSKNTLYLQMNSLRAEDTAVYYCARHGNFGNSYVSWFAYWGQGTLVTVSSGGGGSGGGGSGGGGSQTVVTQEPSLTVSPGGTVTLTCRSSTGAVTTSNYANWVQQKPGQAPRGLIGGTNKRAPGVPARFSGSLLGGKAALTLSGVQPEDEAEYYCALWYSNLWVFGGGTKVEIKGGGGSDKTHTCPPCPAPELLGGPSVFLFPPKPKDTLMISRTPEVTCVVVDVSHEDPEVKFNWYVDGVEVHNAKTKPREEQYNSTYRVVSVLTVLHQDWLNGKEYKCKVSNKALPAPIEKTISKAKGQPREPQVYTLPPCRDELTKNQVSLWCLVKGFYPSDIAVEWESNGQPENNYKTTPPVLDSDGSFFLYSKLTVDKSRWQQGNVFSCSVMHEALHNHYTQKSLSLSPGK
heavy: QLQLQESGPGLVKPSETLSLTCTVSGGSISSGSYFWGWIRQPPGKGLEWIGSIYYSGITYYNPSLKSRVTISVDTSKNQFSLKLSSVTAADTAVYYCARHDGAVAGLFDYWGQGTLVTVSSASTKGPSVFPLAPSSKSTSGGTAALGCLVKDYFPEPVTVSWNSGALTSGVHTFPAVLQSSGLYSLSSVVTVPSSSLGTQTYICNVNHKPSNTKVDKKVEPKSCDKTHTCPPCPAPELLGGPSVFLFPPKPKDTLMISRTPEVTCVVVDVSHEDPEVKFNWYVDGVEVHNAKTKPREEQYNSTYRVVSVLTVLHQDWLNGKEYKCKVSNKALPAPIEKTISKAKGQPREPQVCTLPPSRDELTKNQVSLSCAVKGFYPSDIAVEWESNGQPENNYKTTPPVLDSDGSFFLVSKLTVDKSRWQQGNVFSCSVMHEALHNRFTQKSLSLSPGK
light: SYVLTQPPSVSVAPGQTARITCGGNNIGSKSVHWYQQPPGQAPVVVVYDDSDRPSGIPERFSGNSNGNTATLTISRVEAGDEAVYYCQVWDSSSDHVVFGGGTKLTVLRTVAAPSVFIFPPSDEQLKSGTASVVCLLNNFYPREAKVQWKVDNALQSGNSQESVTEQDSKDSTYSLSSTLTLSKADYEKHKVYACEVTHQGLSSPVTKSFNRGEC
notes: structure 2 (fusion peptide 2, heavy, two light chains); BCMA x CD3; CH2 WT
B2: BCMA-M2-G2 (bispecific antibody, human IgG1, kappa)
chain: QLQLQESGPGLVKPSETLSLTCTVSGGSISSGSYFWGWIRQPPGKGLEWIGSIYYSGITYYNPSLKSRVTISVDTSKNQFSLKLSSVTAADTAVYYCARHDGAVAGLFDYWGQGTLVTVSSASTKGPSVFPLAPSSKSTSGGTAALGCLVKDYFPEPVTVSWNSGALTSGVHTFPAVLQSSGLYSLSSVVTVPSSSLGTQTYICNVNHKPSNTKVDKKVEPKSCDKTHTGGGSAAAQVQLVESGGGVVQPGRSLRLSCAASGFTFSTYAMNWVRQAPGKGLEWVARIRSKYNNYATYYADSVKDRFTISRDDSKNTLYLQMNSLRAEDTAVYYCARHGNFGNSYVSWFAYWGQGTLVTVSSGGGGSGGGGSGGGGSQTVVTQEPSLTVSPGGTVTLTCRSSTGAVTTSNYANWVQQKPGQAPRGLIGGTNKRAPGVPARFSGSLLGGKAALTLSGVQPEDEAEYYCALWYSNLWVFGGGTKVEIKGGGGSDKTHTCPPCPAPPVAGPSVFLFPPKPKDTLMISRTPEVTCVVVDVSHEDPEVQFNWYVDGVEVHNAKTKPREEQFNSTFRVVSVLTVVHQDWLNGKEYKCKVSNKGLPAPIEKTISKTKGQPREPQVYTLPPCRDELTKNQVSLWCLVKGFYPSDIAVEWESNGQPENNYKTTPPVLDSDGSFFLYSKLTVDKSRWQQGNVFSCSVMHEALHNHYTQKSLSLSPGK
heavy: QLQLQESGPGLVKPSETLSLTCTVSGGSISSGSYFWGWIRQPPGKGLEWIGSIYYSGITYYNPSLKSRVTISVDTSKNQFSLKLSSVTAADTAVYYCARHDGAVAGLFDYWGQGTLVTVSSASTKGPSVFPLAPSSKSTSGGTAALGCLVKDYFPEPVTVSWNSGALTSGVHTFPAVLQSSGLYSLSSVVTVPSSSLGTQTYICNVNHKPSNTKVDKKVEPKSCDKTHTCPPCPAPPVAGPSVFLFPPKPKDTLMISRTPEVTCVVVDVSHEDPEVQFNWYVDGVEVHNAKTKPREEQFNSTFRVVSVLTVVHQDWLNGKEYKCKVSNKGLPAPIEKTISKTKGQPREPQVCTLPPSRDELTKNQVSLSCAVKGFYPSDIAVEWESNGQPENNYKTTPPVLDSDGSFFLVSKLTVDKSRWQQGNVFSCSVMHEALHNRFTQKSLSLSPGK
light: B1 light
notes: structure 2; BCMA x CD3; CH2 G2CH2
B3: BCMA-M2-GG2 (bispecific antibody, human IgG1, kappa)
chain: B2 chain with C499G
heavy: B2 heavy with C233G
light: B1 light
notes: structure 2; BCMA x CD3; CH2 GG2CH2
B4: BCMA-M2-DG2D (bispecific antibody, human IgG1, kappa)
chain: B2 chain with D534A, D539A
heavy: B2 heavy with D268A, D273A
light: B1 light
notes: structure 2; BCMA x CD3; CH2 DG2DCH2
B5: BCMA-M2-AG2 (bispecific antibody, human IgG1, kappa)
chain: B2 chain with C499A
heavy: B2 heavy with C233A
light: B1 light
notes: structure 2; BCMA x CD3; CH2 AG2CH2
B6: BCMA-M2-PG2 (bispecific antibody, human IgG1, kappa)
chain: B2 chain with C499P
heavy: B2 heavy with C233P
light: B1 light
notes: structure 2; BCMA x CD3; CH2 PG2CH2
B7: BCMA-M2-G2D (bispecific antibody, human IgG1, kappa)
chain: B2 chain with D539A
heavy: B2 heavy with D273A
light: B1 light
notes: structure 2; BCMA x CD3; CH2 G2DCH2
B8: BCMA-M2-FES (bispecific antibody, human IgG1, kappa)
chain: QLQLQESGPGLVKPSETLSLTCTVSGGSISSGSYFWGWIRQPPGKGLEWIGSIYYSGITYYNPSLKSRVTISVDTSKNQFSLKLSSVTAADTAVYYCARHDGAVAGLFDYWGQGTLVTVSSASTKGPSVFPLAPSSKSTSGGTAALGCLVKDYFPEPVTVSWNSGALTSGVHTFPAVLQSSGLYSLSSVVTVPSSSLGTQTYICNVNHKPSNTKVDKKVEPKSCDKTHTGGGSAAAQVQLVESGGGVVQPGRSLRLSCAASGFTFSTYAMNWVRQAPGKGLEWVARIRSKYNNYATYYADSVKDRFTISRDDSKNTLYLQMNSLRAEDTAVYYCARHGNFGNSYVSWFAYWGQGTLVTVSSGGGGSGGGGSGGGGSQTVVTQEPSLTVSPGGTVTLTCRSSTGAVTTSNYANWVQQKPGQAPRGLIGGTNKRAPGVPARFSGSLLGGKAALTLSGVQPEDEAEYYCALWYSNLWVFGGGTKVEIKGGGGSDKTHTCPPCPAPEFEGGPSVFLFPPKPKDTLMISRTPEVTCVVVDVSHEDPEVKFNWYVDGVEVHNAKTKPREEQYNSTYRVVSVLTVLHQDWLNGKEYKCKVSNKALPASIEKTISKAKGQPREPQVYTLPPCRDELTKNQVSLWCLVKGFYPSDIAVEWESNGQPENNYKTTPPVLDSDGSFFLYSKLTVDKSRWQQGNVFSCSVMHEALHNHYTQKSLSLSPGK
heavy: B1 heavy with L238F, L239E, P335S
light: B1 light
notes: structure 2; BCMA x CD3; CH2 FES
B9: BCMA-M2-SG2 (bispecific antibody, human IgG1, kappa)
chain: B2 chain with C499S
heavy: B2 heavy with C233S
light: B1 light
notes: structure 2; BCMA x CD3; CH2 SG2CH2
B10: BCMA-M2-DG2 (bispecific antibody, human IgG1, kappa)
chain: B2 chain with D534A
heavy: B2 heavy with D268A
light: B1 light
notes: structure 2; BCMA x CD3; CH2 DG2CH2

Changes are numbered by the printed parent chain.

The target of one test is T1, Human CD3ε (human, UniProt P07766 23-126).
T1 construct: CD3 on T cells isolated from human whole blood
In words: flow cytometry, human T cells. A digest of the protocol:
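Antigen-positive tumor cells or isolated T cells, 2×10⁵/well, 1% FBS-PBS, on ice. Ab 3000 nM top, 3-fold ×11, 2 h 4° C shaking; wash; PE anti-hIgG Fc 8 ug/ml, 1 h 4° C. FACS MFI; EC50, one site–specific binding.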
What is called EC50 is the concentration at which the effect is half-maximal. Molecule B1 yielded an EC50 of 588 nM.

Molecule B2 came in with a concentration for a half-maximal effect (EC50) of 515 nM.

As for B3, the concentration giving a half-maximal response (EC50) was 448 nM.

Molecule B4 showed an EC50 of 534 nM.

B5 showed an EC50 of 613 nM.

For the molecule B6, the concentration for a half-maximal effect (EC50) was found to be 599 nM.

B7 came in with an EC50 of 351 nM.

In the case of B8, a half-maximal response (EC50) required 532 nM.

The molecule B9 had an EC50 of 400 nM.

Molecule B10 yielded an EC50 of 550 nM.

For the next test, the target named is T2, Monkey CD3 (monkey).
T2 construct: whole, on cells; also called CD3 of monkey CD3 positive T cells
Put plainly: flow cytometry, monkey T cells.
The molecule B1 had an EC50 of 676 nM.

On to B2, for which a half-maximal response (EC50) required 591 nM.

In the case of B3, the concentration giving a half-maximal response (EC50) is 636 nM.

With B4, the 50% effective concentration (EC50) worked out at 641 nM.

B5 displayed an EC50 of 668 nM.

For B6, the EC50 is 716 nM.

With B7, the EC50 was found to be 510 nM.

As to B8, the EC50 was 630 nM.

The molecule B9 displayed an EC50 of 461 nM.

With B10, the EC50 amounted to 501 nM.

A further test addresses T3, Human BCMA (human, UniProt Q02223 1-54).
T3 sequence: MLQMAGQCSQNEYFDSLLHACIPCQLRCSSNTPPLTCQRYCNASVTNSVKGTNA
In words: flow cytometry, human tumor cells (BCMA+). From the text:
1) Cell preparation: T cells isolated from CD3-positive human whole blood were used for a CD3 end affinity detection of multifunctional antibody molecule; positive tumor cells of corresponding antigen were used for detecting affinity of tumor antigen; for example, CD38-positive MM. 1S cells (purchased from the Cell Resource Center of Shanghai Institutes for Biological Sciences, Chinese Academy of Sciences) or RPMI 8226 cells (purchased from the Cell Resource Center of Shanghai Institutes for Biological Sciences, Chinese Academy of Sciences) were used for CD38 antigen detection, and PD-L1 positive H358 cells (purchased from the Cell Resource Center of Shanghai Institutes for Biological Sciences, Chinese Academy of Sciences) were used for PD-L1 antigen detection, and so on. The cells were resuspended with 1% FBS-PBS, adjusted to a density of 4×10⁶/ml, and 50 μl of cells were taken from each well, and then plated at 2×10⁵ per well. Cell plating was operated on ice
2) Addition of the antibody: according to the experimental design, the antibody was diluted gradually, and dilution of antibody was operated on ice. For example, the initial concentration of antibody for dilution was 3000 nM, and the antibody was diluted by 3 times with 11 concentration gradients. The diluted antibody was added to a cell well at 50 μl per well, mixed well, and shaked and incubated at 4° C. 1100 rpm/min for 2 h; after washing, the cells were resuspend in 1% FBS-PBS, and a diluted secondary antibody PE anti-human IgG FC (Biolegend, 409304) was added with a final concentration of 8 ug/ml and a volume of 50 μl/well. At the same time, a well only added with cells and secondary antibody was set as a control, the components were mixed well, and incubated under shaking at 1100 rpm/min at 4° C. for 1 h;
5) Data analysis: the data was analyzed by a flow analysis software FlowJo 7.6 thereby obtaining an average fluorescence intensity of the specific antibody concentration, plotted by a Graphpad Prism 5 with the antibody concentration (nM) as an abscissa and the average fluorescence intensity as an ordinate; the EC50 value was calculated by the method of One site—Specific binding, and the EC50 value indicated the cell affinity of the antibody to the corresponding target antigen.
Background: Flow cytometry measures light scatter and fluorescence of single cells or particles in a stream.
As for B1, the EC50 turned out to be 20.3 nM.

On to B2, for which the concentration for a half-maximal effect (EC50) stood at 19.1 nM.

B3 registered an EC50 of 23.6 nM.

On to B4, for which the response was half-maximal at 18.8 nM (EC50).

B5 gave a 50% effective concentration (EC50) of 23.8 nM.

B6 came in with an EC50 of 24 nM.

B7 displayed an EC50 of 19.2 nM.

B8 showed an EC50 of 15.3 nM.

In turn, B9 displayed an EC50 of 17 nM.

B10 had an EC50 of 17.4 nM.

These data come from patent publication US20220098307A1 (WUHAN YZY BIOPHARMA, published 2022).
